Laboratory results from the Immune Epitope Database (IEDB).

How the values were obtained:
HLA-B*07:02 [1] = assay: IEDB peptide-MHC binding, purified MHC/competitive/fluorescence; ≥ and ≤ were set here for values at or beyond the usual limits of such assays
HLA-B*35:01 = assay: IEDB peptide-MHC binding, purified MHC/competitive/radioactivity; filed as Kd, often an IC50 or EC50 that approximates it; ≥ and ≤ were set here for values at or beyond the usual limits of such assays
HLA-B*07:02 [2] = assay: as above
HLA-B*51:01 = assay: as above
HLA-B*54:01 = assay: as above
HLA-A*02:02 = assay: as above; conditions: source organism: Vaccinia virus WR
HLA-A*02:03 [3] = assay: as above; conditions: source organism: Vaccinia virus WR
HLA-A*68:02 [4] = assay: as above; conditions: source organism: Vaccinia virus WR
HLA-A*02:06 = assay: as above; conditions: source organism: Vaccinia virus WR
HLA-A*02:01 [5] = assay: as above; conditions: source organism: Vaccinia virus WR
HLA-B*53:01 = assay: as above
HLA-A*69:01 = assay: IEDB peptide-MHC binding, purified MHC/direct/fluorescence; filed as Kd, often an IC50 or EC50 that approximates it; ≥ and ≤ were set here for values at or beyond the usual limits of such assays; conditions: source organism: Mycobacterium tuberculosis
HLA-A*02:03 [6] = assay: as above; conditions: source organism: Mycobacterium tuberculosis str. Haarlem
HLA-A*11:01 = assay: IEDB peptide-MHC binding, purified MHC/competitive/fluorescence; ≥ and ≤ were set here for values at or beyond the usual limits of such assays
HLA-A*24:02 = assay: as above; conditions: source organism: Sudan ebolavirus
HLA-A*02:01 [7] = assay: as above
HLA-A*68:02 [8] = assay: IEDB peptide-MHC binding, purified MHC/competitive/fluorescence; filed as Kd, often an IC50 or EC50 that approximates it; ≥ and ≤ were set here for values at or beyond the usual limits of such assays
HLA-A*30:01 = assay: IEDB peptide-MHC binding, purified MHC/competitive/radioactivity; filed as Kd, often an IC50 or EC50 that approximates it; ≥ and ≤ were set here for values at or beyond the usual limits of such assays
HLA-B*08:01 = assay: as above
HLA-B*15:03 = assay: as above
HLA-A*32:01 = assay: as above
HLA-B*15:01 [9] = assay: as above
HLA-A*24:03 = assay: IEDB peptide-MHC binding, purified MHC/competitive/fluorescence; filed as Kd, often an IC50 or EC50 that approximates it; ≥ and ≤ were set here for values at or beyond the usual limits of such assays; conditions: source organism: Escherichia coli F11
HLA-B*15:01 [10] = assay: IEDB peptide-MHC binding, purified MHC/competitive/fluorescence; ≥ and ≤ were set here for values at or beyond the usual limits of such assays
[11] = source organism: Vaccinia virus WR
[12] = source organism: Sudan ebolavirus
[13] = source organism: SARS coronavirus Tor2
[14] = source organism: Vaccinia virus Copenhagen
[15] = source organism: Vaccinia virus
[16] = source organism: Zaire ebolavirus

In the case of AAEAMEVA, the IC50 (HLA-B*07:02 [1]; source organism: H1N1 subtype Influenza A/Oklahoma/7485/01) is reported as ≥ 1000 µM.
For AFEFINSLLK, the Kd (HLA-B*35:01; [11]) was ≥ 69.9 µM, the Kd (HLA-B*07:02 [2]; [11]) was ≥ 69.6 µM and the Kd (HLA-B*51:01; [11]) was ≥ 69.6 µM. For the same sequence, the Kd (HLA-B*54:01; [11]) was ≥ 69.9 µM, the Kd (HLA-A*02:02) was 5.48 µM and the Kd (HLA-A*02:03 [3]) was ≥ 20.6 µM. The Kd (HLA-A*68:02 [4]) was 11.5 µM, the Kd (HLA-A*02:06) was ≥ 42.8 µM and the Kd (HLA-A*02:01 [5]) was 12.1 µM. For the same sequence, the Kd (HLA-B*53:01; [11]) was ≥ 69.9 µM.
For ALLENIHRV, the Kd (HLA-A*69:01) was 0.0473 µM and the Kd (HLA-A*02:03 [6]) was 0.002 µM.
For ATSYLEYEI, the IC50 (HLA-A*11:01; [12]) was ≥ 81.4 µM, the IC50 (HLA-A*24:02) was 5.08 µM and the IC50 (HLA-A*02:01 [7]; [12]) was 4.96 µM.
With AVVVNPSVK the IC50 (HLA-A*11:01; source organism: West Nile virus) was 2.25 µM.
For CPAEIVDTV, the Kd (HLA-B*35:01; [13]) was 0.196 µM, the Kd (HLA-B*07:02 [2]; [13]) was 0.893 µM and the Kd (HLA-B*51:01; [13]) was 0.00188 µM. For the same sequence, the Kd (HLA-B*54:01; [13]) was 0.00999 µM and the Kd (HLA-B*53:01; [13]) was 0.121 µM.
For DVALEDNLI, the Kd (HLA-A*68:02 [8]; source organism: Vibrio cholerae V52) was 0.0919 µM.
Sequence EDNPGFFRV has a Kd (HLA-A*68:02 [8]; source organism: Yersinia pestis CO92) of 0.296 µM.
EELRSLYNTI was tested, and the Kd (HLA-A*68:02 [8]; source organism: Human immunodeficiency virus 1) was ≥ 20 µM.
For ELAYYNSCM, the Kd (HLA-A*30:01; [14]) was 1.45 µM, the Kd (HLA-B*08:01; [14]) was 0.346 µM and the Kd (HLA-B*15:03; [14]) was 4.14 µM. For the same sequence, the Kd (HLA-A*02:02) was 0.129 µM, the Kd (HLA-A*02:03 [3]) was 0.136 µM and the Kd (HLA-A*32:01; [14]) was ≥ 20.6 µM. For the same sequence, the Kd (HLA-A*02:06) was 3.58 µM and the Kd (HLA-B*15:01 [9]; [14]) was 0.594 µM.
In the case of EPEKDIRELL, the Kd (HLA-B*35:01; [11]) is reported as ≥ 35.5 µM, the Kd (HLA-B*07:02 [2]; [11]) is reported as 15.5 µM and the Kd (HLA-B*51:01; [11]) is reported as ≥ 51 µM. The Kd (HLA-B*54:01; [11]) was ≥ 24.2 µM and the Kd (HLA-B*53:01; [11]) was 0.226 µM.
EPISDYSAEV showed a Kd (HLA-B*35:01; [11]) of 1.08 µM, a Kd (HLA-B*07:02 [2]; [11]) of 1.39 µM and a Kd (HLA-B*51:01; [11]) of 1.11 µM. It also gave a Kd (HLA-B*54:01; [11]) of 0.0466 µM and a Kd (HLA-B*53:01; [11]) of 2.39 µM.
For EQYKTESFF, the Kd (HLA-B*15:03; [11]) was 0.0018 µM and the Kd (HLA-B*15:01 [9]; [11]) was 0.00657 µM.
For FFLQRLYFL, the Kd (HLA-A*30:01; [11]) was 0.768 µM, the Kd (HLA-B*08:01; [11]) was 0.00679 µM and the Kd (HLA-B*15:03; [11]) was 0.805 µM. The Kd (HLA-A*32:01; [11]) was ≥ 38.1 µM and the Kd (HLA-B*15:01 [9]; [11]) was 1.21 µM.
For FGIKCIKKG, the IC50 (HLA-A*11:01; [15]) was ≥ 290 µM.
Work on FMTNFSMVY yielded a Kd (HLA-B*15:03; [11]) of 0.00226 µM.
In the case of FNVNGSQVY, the Kd (HLA-B*15:03; [11]) is reported as 0.264 µM.
With FPCSICLSGL the Kd (HLA-B*35:01; [13]) was 0.123 µM, the Kd (HLA-B*07:02 [2]; [13]) was 0.0585 µM and the Kd (HLA-B*51:01; [13]) was 0.035 µM. The Kd (HLA-B*54:01; [13]) was 0.0652 µM and the Kd (HLA-B*53:01; [13]) was 0.3 µM.
With FQQPQFQYL the Kd (HLA-B*15:03; [14]) was 0.0226 µM.
With FWPQHFGLI the Kd (HLA-A*24:03) was 0.0004 µM.
Sequence GPHRTIHHA has an IC50 (HLA-B*07:02 [1]; [16]) of 5.75 µM.
Work on GQSPARTSS yielded an IC50 (HLA-B*15:01 [10]; [16]) of 26 µM.
For HPNPKGFCDL, the Kd (HLA-B*35:01; [13]) was 0.312 µM, the Kd (HLA-B*07:02 [2]; [13]) was 0.968 µM and the Kd (HLA-B*51:01; [13]) was 0.923 µM. It also gave a Kd (HLA-B*54:01; [13]) of 9.77 µM and a Kd (HLA-B*53:01; [13]) of 0.698 µM.
For HTPQFLFQL, the IC50 (HLA-B*07:02 [1]; [12]) was ≥ 78.8 µM, the IC50 (HLA-A*11:01; [12]) was ≥ 166 µM and the IC50 (HLA-A*24:02) was 1.11 µM. It also gave an IC50 (HLA-A*02:01 [7]; [12]) of 2.73 µM.
For IGLAWIPYF, the IC50 (HLA-A*02:01 [7]; [16]) was 5.68 µM and the IC50 (HLA-B*15:01 [10]; [16]) was ≥ 153 µM.
For ILHVDILSF, the Kd (HLA-B*15:03; [11]) was 0.0238 µM.
With ILRSLETDL the IC50 (HLA-A*02:01 [7]; [15]) was 22 µM and the IC50 (HLA-B*15:01 [10]; [15]) was 58.9 µM.
